{"source": "patent CN106432498A", "about": "(UNIV ANHUI, dated 2017)", "binders": {"B1": {"name": "ATN615抗体 (monoclonal antibody targeting uPAR) (antibody, V domains shown)", "VH": "GVKLQQSGPEVVKPGASVKISCKASGYSFTNFYIHWVKQRPGQGLEWIGWIFHGSDNTEYNEKFKDKATLTADTSSSTAYMQLSSLTSEDSAVYFCARWGPHWYFDVWGQGTTVTVSS", "VL": "DIVLTQSPDITAASLGQKVTITCSASSSVSYMHWYQQKSGTSPKPWIFEISKLASGVPARFSGSGSGTSYSLTISSMEAEDAAIYYCQQWNYPFTFGGGTKLEIKR", "notes": "Made in the same way as H2BL2 (293F cells, protein A); also called ATN615溶液"}, "B2": {"name": "H2BL2抗体 (humanized anti-uPAR antibody H2BL2) (antibody, human IgG1, kappa, V domains shown)", "VH": "EVQLVQSGAEVKKPGSSVKVSCKASGYTFTDYYIHWVRQAPGQGLEWIGWIFHGSDNTEYNEKFKSKATITADESTSTAYMELSSLRSEDTAVFYCARWGPHWYFDAWGRGTLVTVSS", "VL": "DIQMTQSPSTLSASVGDRVTITCRASSSVSYIHWYQQKPGRAPKPLMYEASSRATGVPSRFSGSGSGTEYTLTISSLQSDDFATYYCQQWNYPFTFGQGTKLEIKR", "notes": "also called H2BL2溶液"}}, "key": {"[1]": {"target": "T1, 重组人uPAR蛋白 (recombinant human uPAR protein, uPAR-ECD) (human, UniProt Q03405 23-303, limits assumed)", "T1 construct": "extracellular domain; Bought reagent", "T1 sequence (Q03405 23-303 limits assumed)": "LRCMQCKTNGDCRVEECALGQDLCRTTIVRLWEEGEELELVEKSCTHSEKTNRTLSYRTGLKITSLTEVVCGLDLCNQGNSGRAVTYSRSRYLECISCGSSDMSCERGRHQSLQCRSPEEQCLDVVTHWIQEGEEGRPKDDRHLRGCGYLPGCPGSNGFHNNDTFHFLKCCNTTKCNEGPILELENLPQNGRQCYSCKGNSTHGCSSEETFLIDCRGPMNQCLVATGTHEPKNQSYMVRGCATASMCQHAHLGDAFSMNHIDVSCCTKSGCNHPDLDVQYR", "assay": "BLI (Fortebio), antibody captured on anti-human IgG Fc sensor, uPAR-ECD at 0.25-1 μM"}, "[2]": {"target": "人尿激酶型纤溶酶原激活物受体 (human uPAR) on SW480 cells (human) (UniProt Q03405)", "assay": "flow cytometry on SW480 cells, antibody at 5 μg/ml, FITC goat anti-human IgG"}}, "data": [{"binder": "B1", "values": [{"measurement": "Kd", "setting": "[1]", "value": 7.45, "unit": "nM"}, {"measurement": "koff", "setting": "[1]", "value": 0.000576, "unit": "s⁻¹"}, {"measurement": "kon", "setting": "[1]", "value": 77300, "unit": "M⁻¹ s⁻¹"}]}, {"binder": "B2", "values": [{"measurement": "平均荧光强度", "setting": "[2]", "value": 4.44}, {"measurement": "阳性率", "setting": "[2]", "value": 99.6, "unit": "%"}, {"measurement": "Kd", "setting": "[1]", "value": 6.32, "unit": "nM"}, {"measurement": "koff", "setting": "[1]", "value": 0.000454, "unit": "s⁻¹"}, {"measurement": "kon", "setting": "[1]", "value": 71800, "unit": "M⁻¹ s⁻¹"}]}]}
